Measurements taken from the RNAGym collection of RNA variant scans (doi:10.1073/pnas.2313332121).

B1: TPR t1 (parent)
chain: GACCAAUCUGCCCUCAGAGCUCGAGAACAUCUUCGGAUGCAGAGGAGGCAGGCUUCGGUGGCGCGAUAGCGCCAACGUCCUCAACCUCCAAUGCAUCCCACCACAUGAUGAUGCCUGAAGAGCCUUGGUUUUUUG

Variants of: B1
Assay: polymerase ribozyme fitness, log enrichment relative to wild type (log ratio); higher = more active; in vitro selection for triplet polymerase activity
How it was run: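 To select mutant libraries of each subunit of a heterodimeric triplet polymerase ribozyme, built by PCR and transcribed, each was annealed with a biotinylated primer, partner subunit and triplets, then incubated frozen at −7 °C. Extended constructs were gel-excised, captured on streptavidin beads and amplified by RT-PCR, in one round carried out in triplicate. Illumina sequencing of input and output libraries kept genotypes with ≥10 input reads and ≥1 read per output. Fitness is the base-2 logarithm of genotype enrichment relative to wild-type enrichment, from inverse-variance-weighted replicate averages.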

In order of rising “polymerase ribozyme fitness (log ratio)” value:
1. U9C C22U C34A A43G G77A U106A  -7.59
2. U9C A27U C73A C99A  -7.21
3. U9A A24U G71A G107A U125G  -7.09
4. U9A C13U G25A A29G C53A C114G  -6.86
5. U9C C34U G69U C72U C101A G117A U125A U130G  -6.7
6. U9C G35U A50U  -6.01
7. C8U G36U G58C A91C U96C A111U A121U  -5.93
8. U9A G52A G65C U126C  -5.92
9. C8U G52C U78C G110C  -5.87
10. U9A C98G  -5.74
11. U9A C22A C89A G113U A118U G135U  -5.73
12. U9A G25A  -5.66
13. U9C C12A U21A C80A U87A G93U A121U U126G  -5.57
14. U9A G51C C86G U87A  -5.3
15. C8U U109A  -5.29
16. U9A A26C C40U U87C U125G  -5.19
17. U9A C13U C64G  -5.17
18. U9C A26G A27U U54A C82G  -5.13
19. U9A G19C A27G U106C  -4.96
20. C8U G42U G48U C79A G122A U132A  -4.72
21. U9A G107A  -4.08
22. U9A G10A A46U G69U C79U C102G  -3.8
23. C8U G39C U96C C101U U116A  -3.66
24. U9A C73A A95G C104A G110U  -3.62
25. U9A U30C G47U  -3.54
26. U9A C98A C104U  -3.44
27. U9A G42C C62A C101U  -3.42
28. C8U G71C U87A  -2.97
29. U9C A105U U126A U132A  -2.93
30. U9A A37U U81G  -2.86
31. U9A C20G U116C  -2.71
32. U9C C13A A27U G44C G48U C62U U112A  -2.71
33. U9A C12U A27C C53U  -2.63
34. U9A C12A C88U G127A  -2.52
35. U9A C88U U92A  -2.44
36. U9A G45U  -2.23
37. C8U G47U A90G G113C  -2.16
38. U9C A27C  -2.15
39. U9A C56A G61C G77U G117U  -2.13
40. U9C G36U G47U  -2.03
41. C8U G36C G63U  -1.95
42. C8U U55G G77U G113C  -1.83
43. U9C G17U C72G A83C  -1.63
44. U9A A105C G122A  -1.54
45. U9A U38A U54A U96A U133G  -1.53
46. U9C C72U C102A  -1.5
47. U9A A43U C76A C85G G120A U130C  -1.48
48. U9A C49U G110A  -1.43
49. U9C G36U G63A  -1.4
50. C8U G128A  -1.25
51. C8U G61C  -1.18
52. U9C G42A  -1.15
53. U9A G52A C56A  -1.03
54. U9C A46U C53U A84C C88U  -1.01
55. C8U G48U A50U C86U U96A  -0.998
56. U9C C89A  -0.733
57. C8U U21G  -0.546
58. U9C C15U G42C  -0.305
59. U9C G45A G48U  -0.16
60. U9A G44U  -0.143
61. U9A G113A U130G  -0.107
62. U9A G113A  -0.103
63. C8U G63U A90G C115A  -0.076
64. C8U U96A  -0.0448
65. C8U G36A  -0.0427
66. U9A C12U A37G  -0.0422
67. C8U G39A  0.0776
68. U9C A41C A118U A119G  0.0807
69. C8U U78A  0.175
70. U9A G44U C123A  0.274
71. C8U G47A U59A A74U C124A  0.355
72. C8U G39U  0.386
73. C8U U78C  0.388
74. U9A G127U  0.46
75. C8U U54A  0.528
76. U9C C104U  0.605
77. U9A C40G  0.644
78. C8U U9C G52U U55C U59C  0.781
79. C8U U55C C73A C76G A121U  1.02
80. U9C G48U C123U  1.12
81. U9A C124U  1.21
82. C8U G45A G52C C72A C123G  1.37
83. U9C C73U C85U G120C  1.44
84. U9A C13G G61U C123G  1.99
